B1: Fz4_(CRD-Connector) (M105N) mutant (domain or fragment, human, UniProt Q9ULV1 42-179, looked up)
chain: ERRCDPIRISMCQNLGYNVTKMPNLVGHELQTDAELQLTTFTPLIQYGCSSQLQFFLCSVYVPNCTEKINIPIGPCGGMCLSVKRRCEPVLKEFGFAWPESLNCSKFPPQNDHNHMCMEGPGDEEVPLPHKTPIQPGE
modifications: M105N is meant to introduce an N-linked glycosylation site
B2: chimaera of Fz4CRD+Fz8_(Connector) (domain or fragment, human | mouse, UniProt Q9ULV1 42-151, looked up)
chain: ERRCDPIRISMCQNLGYNVTKMPNLVGHELQTDAELQLTTFTPLIQYGCSSQLQFFLCSVYVPMCTEKINIPIGPCGGMCLSVKRRCEPVLKEFGFAWPESLNCSKFPPQGNPDTLCMDYNRTDLTTAAPSPPRRLPPP
B3: mouse Fz8_(CRD-Connector), residues 30-170 (domain or fragment, UniProt Q61091 30-170, looked up)
chain: AKELACQEITVPLCKGIGYNYTYMPNQFNHDTQDEAGLEVHQFWPLVEIQCSPDLKFFLCSMYTPICLEDYKKPLPPCRSVCERAKAGCAPLMRQYGFAWPDRMRCDRLPEQGNPDTLCMDYNRTDLTTAAPSPPRRLPPP

Target: Norrin (Norrie Disease Protein), biotinylated (UniProt Q00604 25-133, biotin (in vivo biotinylation))
Sequence (Q00604 25-133): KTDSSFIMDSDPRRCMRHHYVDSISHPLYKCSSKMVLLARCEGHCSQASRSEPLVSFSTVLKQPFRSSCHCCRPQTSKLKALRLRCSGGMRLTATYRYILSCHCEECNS
Experiment: SPR

Compared with B1, B2 is lower in “fold weaker affinity than Fz4_(CRD-Connector)” value: roughly 53 fold for the first, roughly 15 fold for the second.

For B3, the “fold weaker affinity than Fz4_(CRD-Connector)” value was roughly 55 fold.
